In publication PMC10397247:

How the values were obtained:
Assay in all cases: two-hybrid library CCmax;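 further: natural log of median RNA to DNA barcode read ratio; higher means stronger binding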
4H317-AA = target: T1, 4H317-AA; settings: mean of both orientations
T1 chain: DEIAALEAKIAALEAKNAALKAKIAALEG

4H3844-AA = target: T2, 4H3844-AA; settings: mean of both orientations
T2 chain: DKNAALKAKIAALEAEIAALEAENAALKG

4H1552-AA = target: T3, 4H1552-AA; settings: mean of both orientations
T3 chain: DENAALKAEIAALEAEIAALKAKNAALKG

4H566-AA = target: T4, 4H566-AA; settings: mean of both orientations
T4 chain: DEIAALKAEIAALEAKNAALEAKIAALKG

4H2837-AA = target: T5, 4H2837-AA; settings: mean of both orientations
T5 chain: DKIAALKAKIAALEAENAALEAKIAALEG

4H454-AA = target: T6, 4H454-AA; settings: mean of both orientations
T6 chain: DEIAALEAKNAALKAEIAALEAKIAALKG

4H2505-AA = target: T7, 4H2505-AA; settings: mean of both orientations
T7 chain: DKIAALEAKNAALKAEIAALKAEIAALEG

4H794-AA = target: T8, 4H794-AA; settings: mean of both orientations
T8 chain: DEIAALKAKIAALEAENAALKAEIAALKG

4H2151-AA = target: T9, 4H2151-AA; settings: mean of both orientations
T9 chain: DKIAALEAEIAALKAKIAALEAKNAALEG

4H2466-AA = target: T10, 4H2466-AA; settings: mean of both orientations
T10 chain: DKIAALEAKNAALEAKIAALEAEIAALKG

4H717-AA = target: T11, 4H717-AA; settings: mean of both orientations
T11 chain: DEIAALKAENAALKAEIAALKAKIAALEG

4H342-AA = target: T12, 4H342-AA; settings: mean of both orientations
T12 chain: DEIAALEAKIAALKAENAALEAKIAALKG

4H2729-AA = target: T13, 4H2729-AA; settings: mean of both orientations
T13 chain: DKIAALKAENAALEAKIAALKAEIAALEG

4H780-AA = target: T14, 4H780-AA; settings: mean of both orientations
T14 chain: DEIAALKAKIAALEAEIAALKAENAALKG

4H122-AA = target: T15, 4H122-AA; settings: mean of both orientations
T15 chain: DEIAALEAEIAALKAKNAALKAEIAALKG

4H1401-AA = target: T16, 4H1401-AA; settings: mean of both orientations
T16 chain: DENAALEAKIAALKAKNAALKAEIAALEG

4H1324-AA = target: T17, 4H1324-AA; settings: mean of both orientations
T17 chain: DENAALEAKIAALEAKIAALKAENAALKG

4H2354-AA = target: T18, 4H2354-AA; settings: mean of both orientations
T18 chain: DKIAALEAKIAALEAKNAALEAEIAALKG

4H429-AA = target: T19, 4H429-AA; settings: mean of both orientations
T19 chain: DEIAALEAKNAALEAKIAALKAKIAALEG

4H2754-AA = target: T20, 4H2754-AA; settings: mean of both orientations
T20 chain: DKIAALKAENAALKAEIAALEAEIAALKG

4H234-AA = target: T21, 4H234-AA; settings: mean of both orientations
T21 chain: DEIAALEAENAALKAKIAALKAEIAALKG

4H2883-AA = target: T22, 4H2883-AA; settings: mean of both orientations
T22 chain: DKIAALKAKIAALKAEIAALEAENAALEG

4H2277-AA = target: T23, 4H2277-AA; settings: mean of both orientations
T23 chain: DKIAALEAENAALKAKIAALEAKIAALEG

4H678-AA = target: T24, 4H678-AA; settings: mean of both orientations
T24 chain: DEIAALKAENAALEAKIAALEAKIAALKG

4H1867-AA = target: T25, 4H1867-AA; settings: mean of both orientations
T25 chain: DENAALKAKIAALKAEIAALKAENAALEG

4H48-AA = target: T26, 4H48-AA; settings: mean of both orientations
T26 chain: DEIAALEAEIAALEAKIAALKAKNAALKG

4H3627-AA = target: T27, 4H3627-AA; settings: mean of both orientations
T27 chain: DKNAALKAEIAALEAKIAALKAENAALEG

4H2190-AA = target: T28, 4H2190-AA; settings: mean of both orientations
T28 chain: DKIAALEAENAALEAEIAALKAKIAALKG

4H2393-AA = target: T29, 4H2393-AA; settings: mean of both orientations
T29 chain: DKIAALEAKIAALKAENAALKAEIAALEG

4H605-AA = target: T30, 4H605-AA; settings: mean of both orientations
T30 chain: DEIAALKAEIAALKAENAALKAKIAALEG

4H1636-AA = target: T31, 4H1636-AA; settings: mean of both orientations
T31 chain: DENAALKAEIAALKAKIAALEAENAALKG

4H1135-AA = target: T32, 4H1135-AA
T32 chain: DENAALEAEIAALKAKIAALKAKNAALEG

4H1352-AA = target: T33, 4H1352-AA; settings: mean of both orientations
T33 chain: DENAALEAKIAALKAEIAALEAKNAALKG

4H2575-AA = target: T34, 4H2575-AA; settings: mean of both orientations
T34 chain: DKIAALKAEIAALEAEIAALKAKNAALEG

4H993-AA = target: T35, 4H993-AA; settings: mean of both orientations
T35 chain: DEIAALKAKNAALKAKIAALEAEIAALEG

4H2949-AA = target: T36, 4H2949-AA; settings: mean of both orientations
T36 chain: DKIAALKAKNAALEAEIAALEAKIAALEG

4H3343-AA = target: T37, 4H3343-AA; settings: mean of both orientations
T37 chain: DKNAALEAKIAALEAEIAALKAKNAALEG

4H3112-AA = target: T38, 4H3112-AA; settings: mean of both orientations
T38 chain: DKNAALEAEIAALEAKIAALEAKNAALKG

4H906-AA = target: T39, 4H906-AA; settings: mean of both orientations
T39 chain: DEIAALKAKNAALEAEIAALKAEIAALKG

4H3606-AA = target: T40, 4H3606-AA; settings: mean of both orientations
T40 chain: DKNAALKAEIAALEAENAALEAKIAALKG

4H881-AA = target: T41, 4H881-AA; settings: mean of both orientations
T41 chain: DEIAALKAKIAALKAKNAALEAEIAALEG

4H335-AA = target: T42, 4H335-AA; settings: mean of both orientations
T42 chain: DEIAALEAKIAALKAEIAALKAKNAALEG

4H3427-AA = target: T43, 4H3427-AA; settings: mean of both orientations
T43 chain: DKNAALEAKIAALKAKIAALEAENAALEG

4H3655-AA = target: T44, 4H3655-AA; settings: mean of both orientations
T44 chain: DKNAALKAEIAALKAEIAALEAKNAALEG

4H2944-AA = target: T45, 4H2944-AA; settings: mean of both orientations
T45 chain: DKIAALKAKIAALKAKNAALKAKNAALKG

4H2078-AA = target: T46, 4H2078-AA; settings: mean of both orientations
T46 chain: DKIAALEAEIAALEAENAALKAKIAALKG

4H1153-AA = target: T47, 4H1153-AA; settings: mean of both orientations
T47 chain: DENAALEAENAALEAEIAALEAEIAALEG

4H2165-AA = target: T48, 4H2165-AA; settings: mean of both orientations
T48 chain: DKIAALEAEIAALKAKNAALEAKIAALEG

4H2642-AA = target: T49, 4H2642-AA; settings: mean of both orientations
T49 chain: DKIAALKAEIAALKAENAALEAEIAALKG

4H2617-AA = target: T50, 4H2617-AA; settings: mean of both orientations
T50 chain: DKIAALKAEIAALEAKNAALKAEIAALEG

4H3921-AA = target: T51, 4H3921-AA; settings: mean of both orientations
T51 chain: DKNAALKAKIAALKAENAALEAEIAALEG

- interaction score (4H317-AA): -0.38
- interaction score (4H3844-AA): 0.92
- interaction score (4H1552-AA): 0.834
- interaction score (4H566-AA): -0.252
- interaction score (4H2837-AA): -0.865
- interaction score (4H454-AA): -0.222
- interaction score (4H2505-AA): 1.53
- interaction score (4H794-AA): -1.61
- interaction score (4H2151-AA): -0.817
- interaction score (4H2466-AA): -1.49
- interaction score (4H717-AA): -1.4
- interaction score (4H342-AA): -1.17
- interaction score (4H2729-AA): -0.655
- interaction score (4H780-AA): -1.44
- interaction score (4H122-AA): -1.24
- interaction score (4H1401-AA): -1.46
- interaction score (4H1324-AA): -1.33
- interaction score (4H2354-AA): -1.64
- interaction score (4H429-AA): -1.27
- interaction score (4H2754-AA): -0.686
- interaction score (4H234-AA): -1.27
- interaction score (4H2883-AA): 1.22
- interaction score (4H2277-AA): -1.81
- interaction score (4H678-AA): -0.965
- interaction score (4H1867-AA): 0.0539
- interaction score (4H48-AA): 0.894
- interaction score (4H3627-AA): 0.0922
- interaction score (4H2190-AA): -1.27
- interaction score (4H2393-AA): -1.45
- interaction score (4H605-AA): -1.37
- interaction score (4H1636-AA): -0.92
- interaction score (4H1135-AA): -0.919
- interaction score (4H1352-AA): 0.703
- interaction score (4H2575-AA): 0.484
- interaction score (4H993-AA): 0.00688
- interaction score (4H2949-AA): -1.21
- interaction score (4H3343-AA): -0.943
- interaction score (4H3112-AA): 1.57
- interaction score (4H906-AA): -1.37
- interaction score (4H3606-AA): 0.227
- interaction score (4H881-AA): -1.61
- interaction score (4H335-AA): -0.173
- interaction score (4H3427-AA): -1.05
- interaction score (4H3655-AA): 1.88
- interaction score (4H2944-AA): -1.57
- interaction score (4H2078-AA): -1.19
- interaction score (4H1153-AA): -0.461
- interaction score (4H2165-AA): -1.42
- interaction score (4H2642-AA): -1.3
- interaction score (4H2617-AA): -0.407
- interaction score (4H3921-AA): -0.897
Binder: DENAALEAEIAALKAKIAALKAKNAALEG [4H1135-AA]
